Source: the supplement of paper PMC7125110
± gives the standard error. For some assays here: Variants at the floor of the assay were thinned out.

B1: glmS ribozyme (parent)
chain: AUAAAAGCGCCAGAACUACAGAAAUGUAGUUGACGAGGAGGAGGUUUAUCGAAUUUUCGGCGGAUGCCUCCAAA

How the values were obtained:
Conditions in all cases: with glucosamine-6-phosphate
glucosamine-6-phosphate [1] = variants of: B1; test: kcat; higher = faster cleavage; RNA array
How it was run: (§1)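 The measurements used barcoded ribozyme variants on sequenced MiSeq chips, transcribed in situ by E. coli RNA polymerase and tracked at 37 °C with a hybridised Cy3 probe. Glucosamine-6-phosphate, 40 μM to 10 mM in HEPES/KCl/Mg(OAc)2 buffer, was flowed in while tiles were imaged over ~14 h. Baseline-normalised signals, also normalised to non-cleaving reference variants, gave per-tile medians that were fit to one- or two-exponential decays for kobs. kcat and KM resulted from weighted Michaelis–Menten fits across concentrations.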

glucosamine-6-phosphate [2] = variants of: B1; test: KM; higher = weaker cofactor use; RNA array
How it was run: as §1

glucosamine-6-phosphate [3] = variants of: B1; test: self-cleavage kobs at 40 uM GlcN6P; higher = faster cleavage; RNA array
How it was run: as §1

glucosamine-6-phosphate [4] = variants of: B1; test: self-cleavage kobs at 640 uM GlcN6P; higher = faster cleavage; RNA array
How it was run: as §1

glucosamine-6-phosphate [5] = variants of: B1; test: self-cleavage kobs at 2500 uM GlcN6P; higher = faster cleavage; RNA array
How it was run: as §1

glucosamine-6-phosphate [6] = variants of: B1; test: self-cleavage kobs at 10000 uM GlcN6P; higher = faster cleavage; RNA array
How it was run: as §1

glucosamine-6-phosphate [7] = variants of: B1; test: self-cleavage kobs at 160 uM GlcN6P; higher = faster cleavage; RNA array
How it was run: as §1

Variant | kcat (glucosamine-6-phosphate [1]) [s⁻¹] | KM (glucosamine-6-phosphate [2]) [µM] | self-cleavage kobs at 40 uM GlcN6P (glucosamine-6-phosphate [3]) [s⁻¹] | self-cleavage kobs at 640 uM GlcN6P (glucosamine-6-phosphate [4]) [s⁻¹] | self-cleavage kobs at 2500 uM GlcN6P (glucosamine-6-phosphate [5]) [s⁻¹] | self-cleavage kobs at 10000 uM GlcN6P (glucosamine-6-phosphate [6]) [s⁻¹] | self-cleavage kobs at 160 uM GlcN6P (glucosamine-6-phosphate [7]) [s⁻¹]
U31C C67G | 4.05e-05 ± 1e-06 | 467 ± 76 | < 1e-05 | 2.33e-05 ± 8.8e-06 | 3.49e-05 ± 6.3e-06 | 3.83e-05 ± 5.5e-06 | –
A12G A39C | 0.000267 ± 1.7e-05 | 2130 ± 300 | – | 6.42e-05 ± 1.1e-05 | 0.000144 ± 1.2e-05 | 0.00022 ± 2.2e-05 | –
A52G A64C C70A | 1.92e-05 ± 6.2e-06 | – | – | – | – | – | –
A14U G32C | 0.000397 ± 4e-05 | 3050 ± 580 | – | 6.36e-05 ± 8.6e-06 | 0.000199 ± 1.9e-05 | 0.000294 ± 2.6e-05 | –
U46A C70A | 0.000184 ± 2.2e-05 | 633 ± 260 | – | 0.000115 ± 2.6e-05 | 0.000146 ± 2.7e-05 | 0.000167 ± 2.9e-05 | –
U30C C67U | 0.0001 ± 1.3e-05 | 927 ± 390 | – | 3.56e-05 ± 7.9e-06 | 8.48e-05 ± 1.8e-05 | 9.05e-05 ± 1e-05 | 3.33e-05 ± 1.3e-05
A33U U54A | 0.000116 ± 2e-05 | – | – | 6.35e-05 ± 1.7e-05 | 7.03e-05 ± 1.2e-05 | 0.000117 ± 1.6e-05 | –
G13U A64G | 0.00128 ± 0.00031 | 4210 ± 1600 | – | 0.000149 ± 1.9e-05 | 0.000657 ± 6.9e-05 | 0.000847 ± 8.3e-05 | 4.62e-05 ± 1.2e-05
G35C U65G | < 1e-05 | 1500 ± 360 | < 1e-05 | – | < 1e-05 | – | < 1e-05
C68A C71G | 2.77e-05 ± 1e-05 | – | – | – | 3.63e-05 ± 9.6e-06 | – | 3.29e-05 ± 1e-05
C16U G41A | 0.00129 ± 0.00064 | – | 6.97e-05 ± 1.2e-05 | 0.000403 ± 7.6e-05 | 0.0011 ± 0.00019 | – | 0.000153 ± 3.2e-05
C11U C61U | < 1e-05 | 122 ± 8.2 | < 1e-05 | < 1e-05 | – | < 1e-05 | –
A12C U45A | 0.0415 ± 0.0022 | 1690 ± 110 | 0.000958 ± 0.00019 | 0.0118 ± 0.003 | 0.0233 ± 0.0073 | 0.037 ± 0.013 | 0.00352 ± 0.00099
C11U G40C C71U | 0.000141 ± 1.8e-06 | 1450 ± 65 | – | 4.4e-05 ± 1.6e-05 | 8.73e-05 ± 2.5e-05 | 0.000124 ± 1.7e-05 | –
